One test concerns the target T1, human des-acyl ghrelin (human).
T1 construct: also called unacylated human ghrelin
The test is described as follows: SPR (BIAcore 2000), Mab amine-coupled to CM5 chip, des-acyl ghrelin as analyte, about 25 C. The procedure: (§1) Except where noted, all reagents and materials are purchased from BIAcore® AB (Uppsala, Sweden). All measurements are performed at about 25° C. All samples containing human ghrelin (full length, C-8 acylated or des-acyl) and anti-ghrelin Mabs are diluted in HBS-EP buffer (150 mM sodium chloride, 3 mM EDTA, 0.005% (w/v) surfactant P-20, and 10 mM HEPES, pH 7.4). For all of the Mabs, the antibody is directly coupled to a CM5 chip using the amine-coupling chemistry described below, aiming for a surface density of between 800-1000 response units (RU). Flow cells (1-4) are activated for 7 minutes with a 1:1 mixture of 0.1 M N-hydroxysuccinimide and 0.1 M 3-(N,N-dimethylamino)propyl-N-ethylcarbodiimide at a flow rate of 10 μl/min. The Mab is diluted to 10 μg/mL in 10 mM sodium acetate, pH 4.5, and manually injected over all four flow cells at a flow rate of 10 μl/min. The surface density is monitored, and additional capture antibody is injected as needed to each individual cell until all flow cells reach a surface density of 800-1000 RU. Surfaces are blocked with a seven minute injection of 1 M ethanolamine-HCl, pH 8.5(10 μl/min). To ensure complete removal of any noncovalently bound capture antibody, 15 μl of 10 mM glycine, pH 1.5, are injected twice. Running buffer for kinetic experiments is HBS-EP buffer (150 mM sodium chloride, 3 mM EDTA, 0.005% (w/v) surfactant P-20, and 10 mM HEPES, pH 7.4).
(§2) Collection of kinetic binding data is performed at maximum flow rate (100 μl/min) and a low surface density to minimize mass transport effects. Each analysis cycle consists of: (i) 200 μl injection (2 min.) of ghrelin (concentration range of 50 nM to 0.39 nM in 2-fold dilution increments) over all four flow cells with flow cell 1 as the reference flow cell; (ii) 20 min. dissociation (buffer only flow); (iii) regeneration of chip surface with a 15 sec injection of 10 mM glycine, pH 1.5; and (iv) a 2 min. stabilization time before the start of the next cycle. The signal is monitored as flow cell 2 minus flow cell 1, flow cell 3 minus flow cell 1, and flow cell 4 minus flow cell 1. Samples and a buffer blank are injected in duplicate in a random order. Data are processed using BIAevaluation v.4.1 software and data are fit to a 1:1 binding model in either BIAevaluation v.4.1 or CLAMP global analysis software.
Background: Surface plasmon resonance follows binding to a sensor surface in real time, without labels.

Test [1] addresses T2, C-8 acylated human ghrelin (1-28) (human, n-octanoyl (C8) group on Ser3).
T2 construct: 28-residue ghrelin, octanoylated at Ser3; the analyte in SPR and the agonist in the FLIPR assay; also called C8 acylated ghrelin; full length, C-8 acylated human ghrelin
The test is described as follows: SPR (BIAcore 2000), Mab amine-coupled to CM5 chip, ghrelin as analyte, about 25 C. The procedure: as §1, §2

For test [2], the target named is T2, C-8 acylated human ghrelin (1-28). The test is described as follows: SPR (BIAcore 2000), Fab captured by goat anti-human kappa, ghrelin as analyte, about 25 C. The procedure: The affinity (KD) of humanized/optimized anti-ghrelin Fabs disclosed in Example 1 for C-8 acylated human ghrelin (1-28) is measured using a BIAcore™ 2000 instrument containing a CM5 sensor chip. Except where noted, all reagents and materials are purchased from BIAcore™ AB (Uppsala, Sweden). Measurements are performed at about 25° C. Samples containing human ghrelin are dissolved in HBS-EP buffer (150 mM sodium chloride, 3 mM EDTA, 0.005% (w/v) surfactant P-20, and 10 mM HEPES, pH 7.4). A capture antibody, goat anti-mouse Kappa (Southern Biotechnology, Inc.) for the D4 and D4 7.1 Fabs, and goat anti-human kappa (Jackson ImmunoResearch) for all other Fabs, hereafter termed “capture antibody,” is immobilized onto flow cells using amine-coupling chemistry. Flow cells (1-4) are activated for 7 minutes with a 1:1 mixture of 0.1 M N-hydroxysuccinimide and 0.1 M 3-(N,N-dimethylamino)propyl-N-ethylcarbodiimide at a flow rate of 10 μl/min. Goat anti-mouse Kappa or goat anti-human kappa (30 μg/mL in 10 mM sodium acetate, pH 4.5) is manually injected over all 4 flow cells at a flow rate of 10 μl/min. The surface density is monitored and additional capture antibody is injected if needed to individual cells until all flow cells reach a surface density of 4500-5000 response units (RU). Surfaces are blocked with a 7 minute injection of 1 M ethanolamine-HCl, pH 8.5 (10 μl/min). To ensure complete removal of any noncovalently bound capture antibody, 15 μl of 10 mM glycine, pH 1.5, is injected twice. Running buffer used for kinetic experiments contains 10 mM HEPES, pH 7.4, 150 mM NaCl, 0.005% P20.
Collection of kinetic binding data is performed at maximum flow rate (100 μl/min) and a low surface density to minimize mass transport effects. Each analysis cycle consists of: (i) capture of 300-350 RU of Fabs (BioSite) by injection of 5-10 μl of 5 μg/ml solution over flow cell 2, 3 and 4 for different Fabs at a flow rate of 10 μl/min., (ii) 200 μl injection (2 min.) of human ghrelin (concentration range of 50 nM to 0.39 nM in 2-fold dilution increments) over all 4 flow cells with flow cell 1 as the reference flow cell, (iii) 20 min. dissociation (buffer flow), (iv) regeneration of capture antibody surface with a 15 seq injection of 10 mM glycine, pH 1.5, (v) a 30 sec blank injection of running buffer, and (vi) a 2 min. stabilization time before the start of the next cycle.

For test [3] the target is unchanged. The test is described as follows: cell-based or functional assay.
Test [4] shares this target. The test is described as follows: SPR (BIAcore 2000), half-life of the complex calculated from koff. The procedure: as §1, with “Surfaces are blocked with a seven minute injection of 1 M ethanolamine-HCl, pH 8.5(10 μl/min). To ensure complete removal of any noncovalently bound capture antibody, 15 μl of 10 mM glycine, pH 1.5, are injected twice. Running buffer for kinetic experiments is HBS-EP buffer (150 mM sodium chloride, 3 mM EDTA, 0.005% (w/v) surfactant P-20, and 10 mM HEPES, pH 7.4).” left out
Collection of kinetic binding data is performed at maximum flow rate (100 μl/min) and a low surface density to minimize mass transport effects. […] The signal is monitored as flow cell 2 minus flow cell 1, flow cell 3 minus flow cell 1, and flow cell 4 minus flow cell 1. […]

For test [5] the target is unchanged. The test is described as follows: SPR (BIAcore 2000), half-life of the complex. The procedure:
The affinity (KD) of humanized/optimized anti-ghrelin Fabs disclosed in Example 1 for C-8 acylated human ghrelin (1-28) is measured using a BIAcore™ 2000 instrument containing a CM5 sensor chip. Except where noted, all reagents and materials are purchased from BIAcore™ AB (Uppsala, Sweden). Measurements are performed at about 25° C. Samples containing human ghrelin are dissolved in HBS-EP buffer (150 mM sodium chloride, 3 mM EDTA, 0.005% (w/v) surfactant P-20, and 10 mM HEPES, pH 7.4). A capture antibody, goat anti-mouse Kappa (Southern Biotechnology, Inc.) for the D4 and D4 7.1 Fabs, and goat anti-human kappa (Jackson ImmunoResearch) for all other Fabs, hereafter termed “capture antibody,” is immobilized onto flow cells using amine-coupling chemistry. Flow cells (1-4) are activated for 7 minutes with a 1:1 mixture of 0.1 M N-hydroxysuccinimide and 0.1 M 3-(N,N-dimethylamino)propyl-N-ethylcarbodiimide at a flow rate of 10 μl/min. Goat anti-mouse Kappa or goat anti-human kappa (30 μg/mL in 10 mM sodium acetate, pH 4.5) is manually injected over all 4 flow cells at a flow rate of 10 μl/min. The surface density is monitored and additional capture antibody is injected if needed to individual cells until all flow cells reach a surface density of 4500-5000 response units (RU). Surfaces are blocked with a 7 minute injection of 1 M ethanolamine-HCl, pH 8.5 (10 μl/min). […]

T1 sequence (peptide, as listed by the source): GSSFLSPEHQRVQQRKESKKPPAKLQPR

B1: Mab D52N (antibody, rat IgG1, V domains shown)
VH: QVQLVQSGAEVKKPGASVKVSCKVSGYTFTSTWMHWVRQAPGKGLEWMGYINPSTGYTEYTQKFKDRVTMTEDTSTDTAYMELSSLRSEDTAVYYCATDGYDEDYWGQGTTVTVSS
VL: DIVMTQSPLSLPVTPGEPASISCRSSDSLGHSSGHTYLSWYLQKPGQSPGLLIYKVSNRFDGVPDRFSGSGSGTDFTLKISRVEAEDVGVYYCSQSTLVPWTFGQGTKLEIKD
Usually Kd stands for the equilibrium constant for the complex coming apart. Higher therefore signals weaker binding. One may read the koff as the rate constant with which the complex falls apart. What is called kon is the rate constant with which the complex forms. A lower kon goes with slower complex formation. For B1, in the test with human des-acyl ghrelin, the affinity, expressed as Kd, was 1.05 nM; the koff was found to be 0.0343 s⁻¹; the kon was determined as 3.26e+07 M⁻¹ s⁻¹.

B2: Mab A4 (antibody, V domains shown)
VH: QVQLVQSGAEVKKPGASVKVSCKVSGYTFTSTWMHWVRQAPGKGLEWMGYIDPSTGYTEYTQKFKDRVTMTEDTSTDTAYMELSSLRSEDTAVYYCATDGYDFDYWGQGTTVTVSS
VL: DIVMTQSPLSLPVTPGEPASISCRSSDSLGHSTGFTYLSWYLQKPGQSPGLLIYKVSNRFDGVPDRFSGSGSGTDFTLKISRVEAEDVGVYYCSQSTLVPWTFGQGTKLEIKD
The molecule B2 returned a Kd in test [1] of 0.074 nM. For the same molecule, the kon in test [1] was 4.44e+06 M⁻¹ s⁻¹; with human des-acyl ghrelin, 4.56e+06 M⁻¹ s⁻¹.

B3: Fab S28D (Fab, V domains shown)
VH: QVQLVQSGAEVKKPGASVKVSCKVSGYTFTSTWMHWVRQAPGKGLEWMGYIDPSTGYTEYTQKFKDRVTMTEDTSTDTAYMELSSLRSEDTAVYYCATDGYDEDYWGQGTTVTVSS
VL: DIVMTQSPLSLPVTPGEPASISCRSSDSLGHSDGNTYLSWYLQKPGQSPGLLIYKVSNRFDGVPDRFSGSGSGTDFTLKISRVEAEDVGVYYCSQSTLVPWTFGQGTKLEIK
notes: The Fab was captured by goat anti-human kappa
Take B3: in test [2], the kon is 3e+07 M⁻¹ s⁻¹.

B4: Mab D27Q (antibody, rat IgG1, V domains shown)
VH: QVQLVQSGAEVKKPGASVKVSCKVSGYTFTSTWMHWVRQAPGKGLEWMGYIDPSTGYTEYTQKFKDRVTMTEDTSTDTAYMELSSLRSEDTAVYYCATDGYDEDYWGQGTTVTVSS
VL: DIVMTQSPLSLPVTPGEPASISCRSSQSLGHSSGHTYLSWYLQKPGQSPGLLIYKVSNRFDGVPDRFSGSGSGTDFTLKISRVEAEDVGVYYCSQSTLVPWTFGQGTKLEIKD
B4: in the test with human des-acyl ghrelin, the Kd was 0.176 nM. Besides, in test [3], the “IC50, in vitro FLIPR calcium assay (intracellular calcium in AV12 cells expressing GHS-R1a)” value was 1.12 nM.

B5: Mab A5 (antibody, rat IgG1, V domains shown)
VH: QVQLVQSGAEVKKPGASVKVSCKVSGYTFTSTWMHWVRQAPGKGLEWMGYIDPSTGYTEYTQKFKDRVTMTEDTSTDTAYMELSSLRSEDTAVYYCATDGYDYDYWGQGTTVTVSS
VL: DIVMTQSPLSLPVTPGEPASISCRSSDHLGHSTGYTYLSWYLQKPGQSPGLLIYKVSNRFDGVPDRFSGSGSGTDFTLKISRVEAEDVGVYYCSQSTLVPWTFGQGTKLEIKD
With B5, the values for the koff (in test [1]; in the test with human des-acyl ghrelin) were 5.74e-05 s⁻¹ and 6.67e-05 s⁻¹, respectively. For the same molecule, the t1/2 in test [4] was 201 min.

B6: Fab A2 (Fab, V domains shown)
VH: QVQLVQSGAEVKKPGASVKVSCKVSGYTFTSTWMHWVRQAPGKGLEWMGYIDPSTGYTEYTQKFKDRVTMTEDTSTDTAYMELSSLRSEDTAVYYCATDGYDFDYWGQGTTVTVSS
VL: DIVMTQSPLSLPVTPGEPASISCRSSDSLGHSTGFTYLSWYLQKPGQSPGLLIYKVSNRFDGVPDRFSGSGSGTDFTLKISRVEAEDVGVYYCSQSTLVPWTFGQGTKLEIK
notes: The Fab was captured by goat anti-human kappa, so it has a human kappa light chain
B6 had a t1/2 in test [5] of 43 min. In addition, in test [2], the dissociation constant Kd worked out at 0.043 nM, the koff is 0.00027 s⁻¹ and the kon is 6.34e+06 M⁻¹ s⁻¹.

B7: Fab T32Y (Fab, V domains shown)
VH: QVQLVQSGAEVKKPGASVKVSCKVSGYTFTSYWMHWVRQAPGKGLEWMGYIDPSTGYTEYTQKFKDRVTMTEDTSTDTAYMELSSLRSEDTAVYYCATDGYDEDYWGQGTTVTVSS
VL: DIVMTQSPLSLPVTPGEPASISCRSSDSLGHSSGHTYLSWYLQKPGQSPGLLIYKVSNRFDGVPDRFSGSGSGTDFTLKISRVEAEDVGVYYCSQSTLVPWTFGQGTKLEIK
notes: as for B3
For the molecule B7, the t1/2 in test [5] amounted to 1 min. In test [2], this molecule gave a Kd of 1 nM and a koff of 0.00875 s⁻¹.

B8: Mab S34H (antibody, rat IgG1, V domains shown)
VH: QVQLVQSGAEVKKPGASVKVSCKVSGYTFTSTWMHWVRQAPGKGLEWMGYIDPSTGYTEYTQKFKDRVTMTEDTSTDTAYMELSSLRSEDTAVYYCATDGYDEDYWGQGTTVTVSS
VL: DIVMTQSPLSLPVTPGEPASISCRSSDSLGHSSGHTYLHWYLQKPGQSPGLLIYKVSNRFDGVPDRFSGSGSGTDFTLKISRVEAEDVGVYYCSQSTLVPWTFGQGTKLEIKD
In test [1], B8 yielded an equilibrium dissociation constant (Kd) of 0.4 nM, a koff of 0.0169 s⁻¹ and a kon of 4.24e+07 M⁻¹ s⁻¹. Besides, the t1/2 in test [4] was 1 min.

(Values after US20090181018A1 (Eli Lilly, published 2009).)
